Measurements as given in patent US20190367589A1.

Experiments:
[1] = target: rat Jagged 2 (rJAG2) (rat) (UniProt P97607); test: drawn table 'Kd (nM)' of Fab; method not stated; the legend names the matured antibody as 4D11
mouse Jagged 1 (mouse) [2] = test: ELISA, ligand-Fc coated (method lists rat Jagged 1-Fc), anti-human IgG Fab-specific HRP
mouse Jagged 1 (mouse) [3] = test: ELISA as for the other curves; sheet and legend say mouse Jagged 1, the method lists rat Jagged 1-Fc as the coated protein

B1: 4D11 Fab (Fab, V domains shown)
VH: EVQLLESGGGLVQPGGSLRLSCAASGFTFSSYAMSWVRQAPGKGLEWVSSIDPEGRQTYYADSVKGRFTISRDNSKNTLYLQMNSLRAEDTAVYYCAKDIGGRSAFDYWGQGTLVTVSS
VL: DIQMTQSPSSLSASVGDRVTITCRASQSISSYLNWYQQKPGKAPKLLIYAASSLQSGVPSRFSGSGSGTDFTLTISSLQPEDFATYYCQQTVVAPPLFGQGTKVEIKR
Kd [1]: < 1 nM

B2: anti-Jagged 32 IgG (antibody, V domains shown)
VH: EVQLLESGGGLVQPGGSLRLSCAASGFTFSSYAMSWVRQAPGKGLEWVSSIEQMGWQTYYADSVKGRFTISRDNSKNTLYLQMNSLRAEDTAVYYCAKSAAAFDYWGQGTLVTVSS
VL: DIQMTQSPSSLSASVGDRVTITCRASQSISSYLNWYQQKPGKAPKLLIYAASLQSGVPSRFSGSGSGTDFTLTISSLQPEDFATYYCQQTVVAPLTFGQGTKVEIKR
affinity (ELISA) (mouse Jagged 1 (mouse) [2]): > 30 nM
EC50 (read off the curve) (mouse Jagged 1 (mouse) [3]): 50 nM

B3: anti-Jagged 13 IgG (antibody, V domains shown)
VH: EVQLLESGGGLVQPGGSLRLSCAASGFTFSSYAMSWVRQAPGKGLEWVSSIETQGPTTLYADSVKGRFTISRDNSKNTLYLQMNSLRAEDTAVYYCAKTSSAFDYWGQGTLVTVSS
VL: DIQMTQSPSSLSASVGDRVTITCRASQSISSYLNWYQQKPGKAPKLLIYASSLQSGVPSRFSGSGSGTDFTLTIGSLQPEDFATYYCQQNVATPLTFGQGTKVEIKR
affinity (ELISA) (mouse Jagged 1 (mouse) [2]): > 30 nM
